Results: patent US20240150451A1
Positions count from the first letter of the chain named. Blank lines part the entries; values can stand above or below the binder they belong to.

Biological target: tau of P301S transgenic mice (aggregated tau in brainstem; tau seeds from spinal cord) (UniProt P10636)
Test: cell-based or functional assay

tau of P301S transgenic mice (aggregated tau in brainstem; tau seeds from spinal cord), sequence (P10636 other isoform, or with tags, fused parts or gaps P301S P301S): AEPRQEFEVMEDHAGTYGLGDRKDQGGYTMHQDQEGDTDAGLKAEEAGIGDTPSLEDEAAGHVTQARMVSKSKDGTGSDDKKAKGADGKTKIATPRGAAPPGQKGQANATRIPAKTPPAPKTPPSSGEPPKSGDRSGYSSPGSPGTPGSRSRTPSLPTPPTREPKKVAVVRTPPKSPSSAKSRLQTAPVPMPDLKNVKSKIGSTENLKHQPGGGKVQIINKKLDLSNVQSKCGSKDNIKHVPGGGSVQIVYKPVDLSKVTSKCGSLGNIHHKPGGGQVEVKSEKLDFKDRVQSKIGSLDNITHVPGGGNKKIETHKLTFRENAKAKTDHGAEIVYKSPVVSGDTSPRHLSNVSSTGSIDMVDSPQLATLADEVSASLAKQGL

% inhibition of tau seeding in FRET biosensor cells after immunodepletion, antibody 3 nM: 22%
% inhibition of tau seeding in FRET biosensor cells after immunodepletion, antibody 300 nM: 99.7%
B1: hTau60 monoclonal antibody (recombinant, mouse IgG2a/kappa) (antibody, V domains shown)
VH: EVQLQQSGPELVKPGTSVKISCKVFGYTFTDYYMNWVKQSHGKSLEWIGDINPDNGETTYNQKFKGKATLTVDKSSSTAYMELRSLTSEDSAVYYCAKGATFVYWGQGTLVTVSA
VL: DVVMTQTPLSLPVSLGDQASISCISSQSLVHSTGTTFLHWFLQKPGQSPKLLIYKVSNRFSGVPDRFSGSGSGTDFTLKISRVEAEDLGFYFCSQSTYFPLTFGSGTKLEIKR

% inhibition of tau seeding in FRET biosensor cells after immunodepletion, antibody 3 nM: 46.5%
% inhibition of tau seeding in FRET biosensor cells after immunodepletion, antibody 300 nM: 99.7%
B2: PT66 monoclonal antibody (recombinant, mouse IgG2a/kappa) (antibody, V domains shown)
VH: QVQLQQPGAELVKPGASVKMSCKASGYTFTSYWITWVKQRPGQGLEWIGDIHPGRGSTKSNEKFKSKATLTVDTSSSTAYMQFSSLTSEDSAVYYCARRWGFDYWGQGTTLTVSS
VL: DIVITQDELSNPVTSGESVSISCRSSKSLLYKDGKTYLNWFLQRPGQSPQLLIYLMSTRASGVSDRFSGSGSGTDFTLEISRVKAEDVGVYYCQQLVDYPLTFGAGTKLELKR

% inhibition of tau seeding in FRET biosensor cells after immunodepletion, antibody 3 nM: 45.8%
% inhibition of tau seeding in FRET biosensor cells after immunodepletion, antibody 300 nM: 99.8%
B3: PT69 monoclonal antibody (recombinant, mouse IgG2a/kappa) (antibody, V domains shown)
VH: B2 VH with S31N, H52Y, R55S, S57R, S66N, V72A, F83L, A97T, F102L
VL: B2 VL with S26N
